# Data from the supplement of paper PMC10567573.
# B1: SNAP91 (parent)
# chain: FSTDAFSSPPQGASPVPESSLTAD
# Variants of: B1
# Experiment: protein stability index of a GFP-peptide fusion (GPS, HEK-293T) (PSI 1-6); higher = more stable
# Conditions: c terminus: a fixed tail appended
# 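Also: lentivirally expressed fusions sorted by FACS into six bins by GFP to DsRed ratio, PSI derived from sequencing read proportions per bin multiplied by bin number.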
row,Variant,protein stability index
1,FSTDAFSSPPQLASPVPESSLTAD [G12L],2.75
2,FSTDAFSSPPQPASPVPESSLTAD [G12P],2.93
3,FSTDAFSSPPQFASPVPESSLTAD [G12F],2.6
4,FSTDAFSSPPQVASPVPESSLTAD [G12V],2.92
5,FSTDAFSSPPQSASPVPESSLTAD [G12S],2.79
6,FSTDAFSSPPQKASPVPESSLTAD [G12K],2.73
7,FSTDAFSSPPQWASPVPESSLTAD [G12W],2.32
8,FSTDAFSSPPQQASPVPESSLTAD [G12Q],3.35
9,FSTDAFSSPPQMASPVPESSLTAD [G12M],2.58
10,FSTDAFSSPPQRASPVPESSLTAD [G12R],3.11
11,FSTDAFSSPPQIASPVPESSLTAD [G12I],2.68
12,FSTDAFSSPPQNASPVPESSLTAD [G12N],3.08
13,FSTDAFSSPPQCASPVPESSLTAD [G12C],2.62
14,FSTDAFSSPPQHASPVPESSLTAD [G12H],2.63
15,FSTDAFSSPPQTASPVPESSLTAD [G12T],3.5
16,FSTDAFSSPPQEASPVPESSLTAD [G12E],3.58
17,FSTDAFSSPPQYASPVPESSLTAD [G12Y],2.44
18,FSTDAFSSPPQAASPVPESSLTAD [G12A],3.39
19,FSTDAFSSPPQDASPVPESSLTAD [G12D],3.52
20,FSTDAFSSPWQGASPVPESSLTAD [P10W],1.72
21,FSTDAFSSPVQGASPVPESSLTAD [P10V],2.73
22,FSTDAFSSPYQGASPVPESSLTAD [P10Y],2.18
23,FSTDAFSSPTQGASPVPESSLTAD [P10T],2.73
24,FSTDAFSSPSQGASPVPESSLTAD [P10S],2.71

row,Variant,protein stability index
1,FSTDAFSSPPTGASPVPESSLTAD [Q11T],3.75
2,FSTDAFSSPPRGASPVPESSLTAD [Q11R],3.06
3,FSTDAFSSPPVGASPVPESSLTAD [Q11V],2.88
4,FSTDAFSSPPCGASPVPESSLTAD [Q11C],2.56
5,FSTDAFSSPPFGASPVPESSLTAD [Q11F],2.68
6,FSTDAFSSPPEGASPVPESSLTAD [Q11E],3.9
7,FSTDAFSSPPSGASPVPESSLTAD [Q11S],4.17
8,FSTDAFSSPPAGASPVPESSLTAD [Q11A],3.33
9,FSTDAFSSPPLGASPVPESSLTAD [Q11L],2.74
10,FSTDAFSSPPNGASPVPESSLTAD [Q11N],3.13
11,FSTDAFSSPPWGASPVPESSLTAD [Q11W],2.2
12,FSTDAFSSPPYGASPVPESSLTAD [Q11Y],2.22
13,FSTDAFSSPPDGASPVPESSLTAD [Q11D],4.01
14,FSTDAFSSPPMGASPVPESSLTAD [Q11M],2.69
15,FSTDAFSSPPHGASPVPESSLTAD [Q11H],3.43
16,FSTDAFSSPPGGASPVPESSLTAD [Q11G],3.34
17,FSTDAFSSPPPGASPVPESSLTAD [Q11P],3.27
18,FSTDAFSSPPIGASPVPESSLTAD [Q11I],3.25
19,FSTDAFSSPPKGASPVPESSLTAD [Q11K],2.68
20,FSTDAFSSPPQGAHPVPESSLTAD [S14H],3.06
21,FSTDAFSSPPQGARPVPESSLTAD [S14R],2.88
22,FSTDAFSSPPQGATPVPESSLTAD [S14T],3.29
23,FSTDAFSSPPQGAYPVPESSLTAD [S14Y],2.84
24,FSTDAFSSPPQGAMPVPESSLTAD [S14M],2.95

row,Variant,protein stability index
1,FSTDAFSSPPQGACPVPESSLTAD [S14C],3
2,FSTDAFSSPPQGAWPVPESSLTAD [S14W],2.69
3,FSTDAFSSPPQGANPVPESSLTAD [S14N],3
4,FSTDAFSSPPQGAQPVPESSLTAD [S14Q],2.75
5,FSTDAFSSPPQGAIPVPESSLTAD [S14I],2.89
6,FSTDAFSSPPQGAGPVPESSLTAD [S14G],3.3
7,FSTDAFSSPPQGAEPVPESSLTAD [S14E],3.27
8,FSTDAFSSPPQGAFPVPESSLTAD [S14F],2.54
9,FSTDAFSSPPQGAAPVPESSLTAD [S14A],3.57
10,FSTDAFSSPPQGAVPVPESSLTAD [S14V],2.63
11,FSTDAFSSPPQGADPVPESSLTAD [S14D],3.62
12,FSTDAFSSPPQGAKPVPESSLTAD [S14K],2.9
13,FSTDAFSSPPQGALPVPESSLTAD [S14L],3.22
14,FSTDAFSSPPQGASGVPESSLTAD [P15G],2.83
15,FSTDAFSSPPQGASRVPESSLTAD [P15R],2.97
16,FSTDAFSSPPQGASHVPESSLTAD [P15H],3.5
17,FSTDAFSSPPQGASKVPESSLTAD [P15K],2.43
18,FSTDAFSSPPQGASDVPESSLTAD [P15D],3.27
19,FSTDAFSSPPQGASNVPESSLTAD [P15N],3.12
20,FSTDAFSSPPQGASFVPESSLTAD [P15F],2.57
21,FSTDAFSSPPQGASEVPESSLTAD [P15E],3.6
22,FSTDAFSSPPQGASMVPESSLTAD [P15M],2.72
23,FSTDAFSSPPQGASCVPESSLTAD [P15C],2.78
24,FSTDAFSSPPQGASIVPESSLTAD [P15I],2.67

row,Variant,protein stability index
1,FSTDAFSSPPQGASAVPESSLTAD [P15A],3.25
2,FSTDAFSSPPQGASLVPESSLTAD [P15L],2.64
3,FSTDAFSSPPQGASQVPESSLTAD [P15Q],3.17
4,FSTDAFSSPPQGRSPVPESSLTAD [A13R],2.77
5,FSTDAFSSPPQGISPVPESSLTAD [A13I],2.52
6,FSTDAFSSPPQGGSPVPESSLTAD [A13G],2.99
7,FSTDAFSSPPQGPSPVPESSLTAD [A13P],2.72
8,FSTDAFSSPPQGCSPVPESSLTAD [A13C],2.69
9,FSTDAFSSPPQGSSPVPESSLTAD [A13S],3.54
10,FSTDAFSSPPQGVSPVPESSLTAD [A13V],2.75
11,FSTDAFSSPPQGLSPVPESSLTAD [A13L],2.82
12,FSTDAFSSPPQGDSPVPESSLTAD [A13D],3.45
13,FSTDAFSSPPQGKSPVPESSLTAD [A13K],2.47
14,FSTDAFSSPPQGFSPVPESSLTAD [A13F],2.54
15,FSTDAFSSPPQGWSPVPESSLTAD [A13W],2.72
16,FSTDAFSSPPQGQSPVPESSLTAD [A13Q],3.11
17,FSTDAFSSPPQGESPVPESSLTAD [A13E],3.22
18,FSTDAFSSPPQGYSPVPESSLTAD [A13Y],2.85
19,FSTDAFSSPPQGTSPVPESSLTAD [A13T],3.47
20,FSTDAFSSPPQGMSPVPESSLTAD [A13M],2.93
21,FSTDAFSSPPQGHSPVPESSLTAD [A13H],3.16
22,FSTDAFSSPPQGNSPVPESSLTAD [A13N],3.51
